Measured values published in US20250122242A1, “SELECTION SYSTEMS, PEPTIDES DETERMINED THEREWITH, AND METHODS OF USING SAME” (Wisconsin Alumni Research Foundation, priority 2023, published 2025).

What was measured:
Aβ42-T7n = Aβ42-T7n (UniProt P00573+P05067); details: clonal SP encoding the sequence
Source text: Therefore, we turned to a split-T7 RNA polymerase (T7 RNAP) reporter used to evolve proteins with improved soluble expression.^33 In our new selection, host E. coli express an aggregation-prone protein (APP) fused to the N-terminal half of split-T7 RNAP (T7n). When the APP-T7n fusion is translated, it misfolds due to the APP, preventing T7n from associating with the C-terminal half of split-T7 RNAP (T7c; FIG. 2A). If a SP-encoded inhibitor binds to and prevents APP aggregation, the fused T7n will remain folded and join with T7c to produce full-length T7 RNAP. The reconstituted T7 RNAP then transcribes gIII, which we place under control of the T7 promoter (PT7), producing pill and allowing the SP to reproduce (FIGS. 2A and 2B).
We used the SICLOPPS method to biosynthesize cyclic peptides that can be selected in E. coli.^15 In SICLOPPS, a precursor fusion consisting of the C-terminal half of the Ssp DnaE split intein, the peptide sequence to be cyclized, and the N-terminal half of the same split intein undergoes intein splicing after translation to produce head-to-tail cyclized peptides (FIG. 7).
Strain S206035 was used for plasmid cloning, amplification, and phage assays. Strain S220835 was used for SP cloning and plaque assays. Plasmids and SPs were cloned by USER assembly or blunt-end ligation. Competent cells were prepared and transformed using the TSS method. Phage propagation and plaque assays were performed as previously described.^54 Unless otherwise noted, phage propagation assays used an input of […] phage to infect a 2 mL culture of host cells.

Aβ42-GFP = Aβ42-GFP folding reporter fluorescence assay; assay type: cell-based, E. coli; details: expressed from plasmid, 0.04 mM IPTG, compared with CKVWQLL (FIG. 3H)
Aβ42-GFP, sequence (P05067 672-713): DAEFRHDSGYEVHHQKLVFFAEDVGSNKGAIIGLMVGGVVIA
Protocol: (§1) Single colonies of S2060s transformed with pBL066c and SICLOPPS plasmid were used to make overnight cultures in 2×YT with maintenance antibiotics. The overnight culture was diluted (1:100) into 1 mL DRM on a 96 deep-well plate (VWR, 75870-796) with maintenance antibiotics and IPTG (0, 0.04, 0.2, or 1 mM). The diluted culture was incubated at 37° C. with shaking for 2.5 h, after which aTc (200 ng/mL) was added. 100 μL of the culture was transferred onto a black clear-bottom 96-well plate (VWR, 89131-680) to measure fluorescence signal 2, 3, 5 h after addition of aTc. GFP fluorescence signal (excitation wavelength=485 nm, emission wavelength=535 nm) was then measured using a Tecan M Plex microplate reader.

E. coli = test: Growth (OD600) of cells expressing SICLOPPS precursors upon IPTG induction; details: OD600, IPTG induction (FIG. 9B)
Protocol: Data reflects 3 biological replicates plotted as individual values.
as §1

Aβ42-T7n, sequence (P05067+P00573 fused): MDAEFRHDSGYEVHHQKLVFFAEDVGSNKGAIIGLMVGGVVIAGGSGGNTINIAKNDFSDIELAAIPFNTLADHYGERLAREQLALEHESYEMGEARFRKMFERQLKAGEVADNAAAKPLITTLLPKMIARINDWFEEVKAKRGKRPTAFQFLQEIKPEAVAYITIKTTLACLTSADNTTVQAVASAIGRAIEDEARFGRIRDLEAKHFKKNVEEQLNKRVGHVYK

## CRVYQVL (cyclic; Circular) [cyclo-CRVYQVL]
Aβ42-T7n
  phage propagation activity (fitness) on Aβ42-T7n selection: more modest fitness
Aβ42-GFP
  activity in Aβ42-GFP folding reporter assay: appeared inactive
E. coli
  effect of construct induction on cell growth: greatly decreased cell growth
